{"source": "paper PMC13374049", "about": "(Cell host & microbe, 2026)", "target": "full-length Measles virus hemagglutinin (H) on transfected HEK293T cells (Measles virus, strain IC323, UniProt Q786F2)", "sequence (Q786F2 whole entry)": "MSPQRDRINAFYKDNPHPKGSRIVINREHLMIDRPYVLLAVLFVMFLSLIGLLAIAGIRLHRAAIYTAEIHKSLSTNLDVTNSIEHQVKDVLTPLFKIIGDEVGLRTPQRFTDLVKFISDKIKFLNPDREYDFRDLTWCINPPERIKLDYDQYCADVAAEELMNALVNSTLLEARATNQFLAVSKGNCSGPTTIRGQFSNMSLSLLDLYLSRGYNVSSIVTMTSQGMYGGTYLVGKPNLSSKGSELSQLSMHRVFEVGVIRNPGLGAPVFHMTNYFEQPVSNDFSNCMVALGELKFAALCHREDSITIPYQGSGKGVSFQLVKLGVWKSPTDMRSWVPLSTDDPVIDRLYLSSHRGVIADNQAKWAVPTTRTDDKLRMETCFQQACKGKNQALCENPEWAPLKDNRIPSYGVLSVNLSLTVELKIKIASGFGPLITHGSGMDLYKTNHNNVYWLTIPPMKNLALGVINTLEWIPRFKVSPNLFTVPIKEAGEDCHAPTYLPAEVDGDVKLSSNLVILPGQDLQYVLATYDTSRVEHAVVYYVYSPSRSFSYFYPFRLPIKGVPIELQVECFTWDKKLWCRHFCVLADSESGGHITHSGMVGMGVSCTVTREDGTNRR", "assay": "flow cytometry on cells", "data": [{"binder": "human anti-MeV H monoclonal antibody 4D08 (IgG1) (antibody, V domains shown) VH: QMQLVQSGAEVKKPGASVKVSCKASGYTFTSYAMHWVRQAPGQRLEWMGWINAGNGKTEYSQRFQGRVTITRDTSASTVYMELNSLRSEDTAVYFCARDAYDFWSGYGNWGSNYYYFYMDAWGKGTTVTVSS VL: EIVMTQSPPSLSASVGDRVTITCRASQSINYYLNWYQQKPGKAPKLLIYAASGLQSGVPSRFSGSGSGTDFTLTISSLQPEDLATYYCQQTYSTPVTFGQGTKLEII", "values": [{"measurement": "binding result", "result": "binds"}]}, {"binder": "human anti-MeV H monoclonal antibody 1C02 (IgG1) (antibody, V domains shown) VH: EVQLLESGAEVKKPGSSVKVSCKASGGTFSSYGISWVRQAPGQGLEWMGGIIPIFGTANYAQKFRGRVTITADKSTSTAYMELSSLRSEDTAVYYCARERITVAGINYYYGMDVWGQGTTVTVSS VL: RPVLTQPPSVSGAPGQRVTISCTGSSSNIGAGYDVHWYQQLPGTAPKLLIYGDSNRPSGVPDRFSGSKSGTSASLAITGLQAEDEADYYCQSYDSSLSGVVFGGGTKLTVL", "values": [{"measurement": "binding result", "result": "binds"}]}]}
